In article PMC4337726, “A molecular basis for the differential roles of Bub1 and BubR1 in the spindle assembly checkpoint” (eLife, 2015):

Tests used:
[1] = molecular target: Apc7; assay: co-immunoprecipitation (anti-GFP IP), quantified Western blot; conditions: mitotic Flp-In T-REx cell lines; mean of two independent experiments; parent: 1.0; read off a plot
[2] = molecular target: Bub3 (UniProt O43684); assay: as above; conditions: mitotic Flp-In T-REx cell lines; mean of two independent experiments; parent: 1.0; read off a plot
[3] = molecular target: Cdc20 (UniProt Q12834); assay: as above; conditions: mitotic Flp-In T-REx cell lines; mean of two independent experiments; parent: 1.0; read off a plot
[4] = molecular target: Cdc27; assay: as above; conditions: mitotic Flp-In T-REx cell lines; mean of two independent experiments; parent: 1.0; read off a plot
[5] = molecular target: Mad2 (UniProt Q13257); assay: as above; conditions: mitotic Flp-In T-REx cell lines; mean of two independent experiments; parent: 1.0; read off a plot
[6] = molecular target: anaphase promoting complex/cyclosome, P30260;Q9UJX3; assay: co-immunoprecipitation (anti-Cdc27 IP), quantified Western blot; conditions: mitotic Flp-In T-REx cell lines; mean of two independent experiments; parent: 1.0; read off a plot
[7] = molecular target: T1, H6-Bub1^1–409/Bub3 (human | , UniProt O43683 1-409; O43684 1-328); assay: SEC; mobility shift; proteins at 15 µM, 1 hr at 20–22°C in 50 mM Tris–HCl pH 8, 150 mM KCl, 1.5 mM TCEP, 0.05% Tween20; Superose6 10/300; SDS-PAGE of fractions; conditions: both partners purified
T1 construct: Bub3, co-expressed, untagged or as Bub3-TRX; source: insect cells, co-infection and co-expression, purified (HisTrap, S200 SEC); not shown: H6, N-terminal, kept

[8] = molecular target: T2, H6-Bub1^209–409-MBP/Bub3 (human | , UniProt O43683 209-409; O43684 1-328); assay: as above; conditions: both partners purified
T2 construct: Bub3, untagged, co-expressed; source: insect cells, co-expressed, purified (TALON, SEC); not shown: H6, N-terminal, kept; MBP, C-terminal, kept
T2 sequence (O43683 209-409, chain 1 of 2): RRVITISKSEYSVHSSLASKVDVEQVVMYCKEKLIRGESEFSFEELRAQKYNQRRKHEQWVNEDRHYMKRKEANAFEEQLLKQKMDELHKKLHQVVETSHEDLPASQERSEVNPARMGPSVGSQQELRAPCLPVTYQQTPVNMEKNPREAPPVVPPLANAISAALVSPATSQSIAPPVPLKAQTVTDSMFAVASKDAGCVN
T2 sequence (O43684 whole entry, chain 2 of 2): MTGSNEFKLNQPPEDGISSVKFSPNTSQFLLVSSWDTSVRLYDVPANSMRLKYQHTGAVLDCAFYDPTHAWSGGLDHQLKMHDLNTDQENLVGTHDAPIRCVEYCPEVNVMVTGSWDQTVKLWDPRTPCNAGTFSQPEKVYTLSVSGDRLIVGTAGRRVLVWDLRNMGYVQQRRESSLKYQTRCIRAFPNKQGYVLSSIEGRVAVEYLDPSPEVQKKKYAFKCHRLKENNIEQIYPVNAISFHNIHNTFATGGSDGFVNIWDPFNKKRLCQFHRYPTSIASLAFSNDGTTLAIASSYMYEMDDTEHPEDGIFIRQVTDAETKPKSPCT

Chain of Cdc20 (Q12834 whole entry): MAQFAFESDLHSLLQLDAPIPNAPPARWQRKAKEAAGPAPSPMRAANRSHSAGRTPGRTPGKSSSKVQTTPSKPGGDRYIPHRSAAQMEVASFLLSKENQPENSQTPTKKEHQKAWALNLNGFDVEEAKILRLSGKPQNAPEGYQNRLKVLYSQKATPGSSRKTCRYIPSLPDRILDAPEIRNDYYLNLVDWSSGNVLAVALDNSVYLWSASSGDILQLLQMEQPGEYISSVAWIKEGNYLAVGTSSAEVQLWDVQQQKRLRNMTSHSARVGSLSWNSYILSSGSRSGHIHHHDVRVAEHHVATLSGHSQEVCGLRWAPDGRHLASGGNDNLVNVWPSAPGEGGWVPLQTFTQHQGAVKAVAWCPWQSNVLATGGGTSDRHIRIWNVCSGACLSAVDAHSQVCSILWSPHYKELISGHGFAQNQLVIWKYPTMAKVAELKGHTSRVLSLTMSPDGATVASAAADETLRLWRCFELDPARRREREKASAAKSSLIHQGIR
Chain of Mad2 (Q13257 whole entry): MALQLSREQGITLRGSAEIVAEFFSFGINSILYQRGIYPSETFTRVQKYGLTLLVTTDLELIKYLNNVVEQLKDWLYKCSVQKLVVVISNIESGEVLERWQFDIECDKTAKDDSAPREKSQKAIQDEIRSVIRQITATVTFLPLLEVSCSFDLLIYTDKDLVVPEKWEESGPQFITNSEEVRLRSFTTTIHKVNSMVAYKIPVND
Chain of Bub3 (O43684 whole entry): as the sequence (O43684 whole entry, chain 2 of 2) above
T1 sequence (O43683 1-409, chain 1 of 2): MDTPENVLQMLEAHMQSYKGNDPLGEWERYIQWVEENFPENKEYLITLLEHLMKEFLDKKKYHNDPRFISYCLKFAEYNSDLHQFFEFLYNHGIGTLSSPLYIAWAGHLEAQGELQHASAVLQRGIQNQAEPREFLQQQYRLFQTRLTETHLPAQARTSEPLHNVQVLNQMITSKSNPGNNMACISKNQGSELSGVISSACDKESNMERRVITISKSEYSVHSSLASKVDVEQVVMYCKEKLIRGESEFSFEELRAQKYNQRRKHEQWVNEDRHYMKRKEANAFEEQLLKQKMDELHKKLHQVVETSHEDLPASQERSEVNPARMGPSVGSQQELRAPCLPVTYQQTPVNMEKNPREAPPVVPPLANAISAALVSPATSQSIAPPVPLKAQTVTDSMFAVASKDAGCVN
T1 sequence (O43684 whole entry, chain 2 of 2): as the sequence (O43684 whole entry, chain 2 of 2) above

Molecule “GFP-BubR1 wild type, full length (from UniProt O60566) B1-loop” has a ratio to parent [1] of 0.08, a ratio to parent [2] of 1.1 and a ratio to parent [3] of 0.12. It also gave a ratio to parent [4] of 0.06, a ratio to parent [5] of 0.12 and a ratio to parent [6] of 0.15.

B1: H6-TRX-BubR1^362–571 (domain or fragment, human, UniProt O60566 362-571, looked up)
chain: INHILSTRKPGKEEGDPLQRVQSHQQASEEKKEKMMYCKEKIYAGVGEFSFEEIRAEVFRKKLKEQREAELLTSAEKRAEMQKQIEEMEKKLKEIQTTQQERTGDQQEETMPTKETTKLQIASESQKIPGMTLSSSVCQVNCCARETSLAENIWQEQPHSKGPSVPFSIFDEFLLSEKKNKSPPADPPRVLAQRRPLAVLKTSESITSNE
notes: source: insect cells, baculovirus, purified (TALON, SEC)
B1: binds [7]; binds [8].
